In patent US20230174628A1:

Molecular target: RBD of the recombinantly expressed S protein (SARS-CoV-2) (UniProt P0DTC2)
Assay: ELISA, plate coated with RBD at 0.01 µg/ml, HRP goat anti-human IgG Fc

- OD450 reading: 0.006 OD450
Substance: Irrelevant antibody
